Data from paper PMC3141240.

T1: KSHV SOX (alkaline exonuclease) (Kaposi's sarcoma-associated herpesvirus …, UniProt P88925 1-486)
T1 sequence: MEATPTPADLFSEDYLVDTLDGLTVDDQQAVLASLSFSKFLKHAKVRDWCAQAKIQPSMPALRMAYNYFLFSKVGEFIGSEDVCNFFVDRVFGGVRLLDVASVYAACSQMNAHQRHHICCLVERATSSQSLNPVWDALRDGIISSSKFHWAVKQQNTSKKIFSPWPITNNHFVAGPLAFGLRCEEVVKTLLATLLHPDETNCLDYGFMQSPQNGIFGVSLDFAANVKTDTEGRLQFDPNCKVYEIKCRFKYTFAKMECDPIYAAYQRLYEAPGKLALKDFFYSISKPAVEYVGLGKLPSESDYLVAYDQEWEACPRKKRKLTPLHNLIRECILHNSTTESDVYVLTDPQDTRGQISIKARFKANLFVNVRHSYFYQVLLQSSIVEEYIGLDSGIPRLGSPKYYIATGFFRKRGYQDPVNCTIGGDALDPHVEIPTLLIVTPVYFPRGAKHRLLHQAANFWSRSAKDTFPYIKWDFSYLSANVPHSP


What follows are binders tested against T1, KSHV SOX (alkaline exonuclease) (assay: fluorescence anisotropy).

Binder	Kd [µM]
dsRNA-5'P (dsRNA, 5' phosphate on strand 1) RNA 1: UGGUUUACAUGUUCCAAUAUU RNA 2: AAUAUUGGAACAUGUAAACCA	95
dsDNA-5'P (dsDNA, 5' phosphate on strand 1) DNA 1: GGGGATCCTCCCAGTCGACC DNA 2: GGTCGACTAGGAGGATCCCC	6
UGGUUUACAUGUUCCAAUAUU (ssRNA, 5' phosphate) [ssRNA-5'P]	87
